The results in this text go back to patent publication US20260108607A1 (BEIJING DCTY BIOTECH, published 2026).

Read-outs that look alike come from different tables or passages of the source.

Test [1] addresses T1, EGFR (wild type) expressed on target cells (UniProt P00533 25-1210, limits assumed).
T1 construct: whole, on cells; also called F98npEGFR; U87MG-EGFR
Briefly: flow cytometry of the subclone supernatant on F98npEGFR cells (Geom mean).

The target in test [2] is T2, EGFRvIII overexpressed on target cells (UniProt P00533 25-1210).
T2 construct: whole, on cells; Same protein on two cell lines: F98npEGFRvIII for flow cytometry, U87MG-EGFRvIII for the killing assays; also called F98npEGFRvIII; U87MG-EGFRvIII
Briefly: flow cytometry of the subclone supernatant on F98npEGFRvIII cells (Geom mean). A general note: Flow cytometry measures light scatter and fluorescence of single cells or particles in a stream.

The target of test [3] is T3, EGFRvIII target antigen (SPR ligand) (UniProt P00533 25-645, limits assumed).
T3 construct: also called EGFRvIII antigen
The experiment in a line: SPR; antibody as analyte. Background: In SPR one partner is held on a chip, and binding of the other changes the refractive index at the surface.

The target in test [4] is T3, EGFRvIII target antigen (SPR ligand). Briefly: SPR; antibody as analyte. This is another data set of the same source.

In general, Kd refers to a measure of binding affinity in units of concentration. As a reminder, the koff is the rate constant with which the complex falls apart. As a reminder, the kon is a measure of how fast the partners come together. A lower kon goes with slow association.

B1: 20-2-52 (antibody, V domains shown)
VH: QIQLVQSGPELKKPGETVKISCKASGYTFINYGMNWVKQTPGKGLKWMGWINTYTGEPTYADDFKGRFAFSLETSASTAYLQINNLKNEDMATYFCSREEFYSRGAMDYWGQGTSVTVSS
VL: DVLMTQTPLSLPVSLGDQASISCRSSQFIVHSNGNTYLEWYLQKPGQSPKLLIYKISNRFSGVPDRFSGSGSGTDFTLKISRVEAEDLGVYYCFQGSHVPFTFGSGTKLEIK
notes: also called 124A5F2
Take B1: the values for the binding result in test [1] and in test [2] were “no binding” and “binds”, respectively.

B2: 20-2-25 (antibody, V domains shown)
VH: EVQLQQSGAELVRPGALVKLSCKASGFNIKDYYMHWVKQRPEQGLEWIGWIDPENGNTIYDPKFQGKASITADTSSNTAYLQLSSLTSEDTAVYYCARGYLVYWGQGTLVTVSA
VL: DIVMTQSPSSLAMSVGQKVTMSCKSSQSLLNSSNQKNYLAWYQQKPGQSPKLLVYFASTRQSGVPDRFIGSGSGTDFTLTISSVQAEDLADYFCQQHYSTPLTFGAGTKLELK
notes: the antibody in the subclone supernatant, not the CAR m26; also called 70B6F6H11
As to B2, the binding result is “no binding” in test [1] and “binds” in test [2].

B3: 84C3G8H7-chimeric-scFv (20-2-28) (scFv, V domains shown)
VH: EVQLQQSGAELVRPGALVKLSCKASGFNIKDYYMHWVKQRPEQGLEWIGWIDPENGNTIYDPKFQGKASITADTSSNTAYLQLSSLTSEDTAVYYCARGWFAYWGQGTLVTVSA
VL: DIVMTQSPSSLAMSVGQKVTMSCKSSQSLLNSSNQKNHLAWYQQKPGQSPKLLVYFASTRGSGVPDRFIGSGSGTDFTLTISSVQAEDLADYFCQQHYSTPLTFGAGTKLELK
In test [3], B3 came in with a Kd of 59 nM, a dissociation rate constant (koff) of 0.00883 s⁻¹ and an on-rate constant (kon) of 150000 M⁻¹ s⁻¹.

B4: 20-2-34 (antibody, V domains shown)
VH: EVQLQQSGAELVRPGALVKLSCKASGFNIKDYYMHWVKQRPEQGLEWIGWIDPENGNTIYDPKFQGKASITADTSSNTAYLQLSSLTSEDTAVYYCARGYLVYWGQGTLVTVSA
VL: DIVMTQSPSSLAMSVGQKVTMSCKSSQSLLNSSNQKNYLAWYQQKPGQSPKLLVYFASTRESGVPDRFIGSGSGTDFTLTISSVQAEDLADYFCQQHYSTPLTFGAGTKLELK
notes: the antibody in the subclone supernatant, not the CAR m28; also called 84G9F9
As to B4, the binding result in test [1] was “no binding”; in test [2], “binds”.

B5: 20-2-22 (antibody, V domains shown)
VH: EVQLQQSGAELVRPGALVKLSCKASGFNIKDYYMHWVKQRPEQGLEWIGWIDPENGNTIYDPKFQGKASITADTSSNTACLQLSSLTSEDTAVYYCARGWFAYWGQGTLVTVSA
VL: DILMTQSPSSLAMSVGQKVTMSCKSSQSLLNSSNQKNHLAWYQQKPGQSPKLLVYFASTRQSGVPDRFIGSGSGTDFTLTISSVQAEDLADYFCQQHYSTPLTFGAGTKLELK
notes: also called 57D8C3
As to B5, the binding result is “no binding” in test [1] and “binds” in test [2].

B6: 20-2-10 (antibody, V domains shown)
VH: EVQLQQSGADLVRPGALVKLSCKASGFNIKDYYLHWVKQRPEQGLEWIGWIDPENGNTIYDPKFQGKASITADTSSNTAYLQLSSLTSEDTAVYYCARGYLTYWGQGTLVTVSA
VL: DIVMTQSPSSLAMSVGQKVTMNCKSSQNLLNSSNQKNYLAWFQQKPGQSPKLLVYFASTRYSGVPDRFMGSGSGTDFTLTVSSVQAEDLADYFCQQHYSTPLTFGAGTKLELK
notes: also called 75H11B1
As to B6, the binding result in test [1] is listed as “no binding”; in test [2], “binds”.

B7: 20-2-19 (antibody, V domains shown)
VH: EVQLQQSGAELVRPGALVKLSCKASGFNIKDYYMHWVKQRPEQGLEWIGWIDPENGNTIYDPKFQGKASITADTSSNTAYLQLSSLTSEDTAVYYCARGYLAYWGQGTLVTVSA
VL: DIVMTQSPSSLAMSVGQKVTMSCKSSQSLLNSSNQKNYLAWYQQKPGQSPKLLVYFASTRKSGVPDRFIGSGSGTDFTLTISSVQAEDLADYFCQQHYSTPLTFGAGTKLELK
notes: also called 53H2H7 (recombinantly expressed)
With B7, the results for the binding result in test [1] and in test [2] were “no binding” and “binds”, respectively.

B8: 20-2-16 (antibody, V domains shown)
VH: EVQLQQSGAELVRPGALVKLSCKASGFNIKDYYMHWVKQRPEQGLEWIGWIDPENGNTIYDPKFQGKATITADTSSNTAYLQLSSLTSEDTAVYYCARGYLVYWGQGTLVTVSA
VL: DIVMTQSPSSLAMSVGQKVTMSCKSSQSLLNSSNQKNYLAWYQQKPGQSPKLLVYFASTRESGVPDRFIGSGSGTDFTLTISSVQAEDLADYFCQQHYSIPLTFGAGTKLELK
notes: also called 90H3D2
As to B8, the binding result is listed as “no binding” in test [1] and “binds” in test [2].

B9: 20-2-31 (antibody, V domains shown)
VH: EVQLQQSGAELVRPGALVKLSCKASGFNIKDYYMHWVKQRPEQGLEWIGWIDPENGNTIYDPKFQGKASITADTSSNTAYLQLSSLTSEDTAVYYCARGYLVYWGQGTLVTVSA
VL: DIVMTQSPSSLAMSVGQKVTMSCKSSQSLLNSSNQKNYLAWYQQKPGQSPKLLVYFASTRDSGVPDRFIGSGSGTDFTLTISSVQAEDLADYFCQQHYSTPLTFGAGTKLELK
notes: also called 95G10G8E4
Consider B9, for which the results for the binding result in test [1] and in test [2] were “no binding” and “binds”, respectively.

B10: 20-2-49 (antibody, V domains shown)
VH: QVQLQQSGAELAKPGASVKMSCKASAYTFTTYWMHWVKQRPGQGLEWIGYINPNTAYTEYNQNFKDKATLTADKSSSTAYMQLGSLTSEDSAVYYCARGAYYRTYYAMDYWGQGTSVTVSS
VL: DIVLTQSPASLAVSLGQRATISCKASQSVDYDGDSYMNWYQQKPGQPPKLLIYAASNLESGIPARFSGSGSGTDFTLNIHPVEEEDAATYYCLQSNEDPYTFGGGTRLEIN
notes: also called 121E9D12
B10: the binding result is recorded as “no binding” in test [1] and “binds” in test [2].

B11: 20-2-37 (antibody, V domains shown)
VH: EVMLVESGGGLVKPGGSLKLSCAASRFTFSNYAMSWVRQTPEKRLEWVATITSGGSYTYYPDSVKGRFTISRDNAKNTLYLQMSSLRSEDTAMYYCARKDYGNYWFAYWGQGTLVTVSA
VL: DVVMTQTPLSLPVSLGDQASISCRSSQSLVHSDGNTYLHWYLQKPGQSPKLLIYKVSNRFSGVPDRFSGSGSGTDFTLKISRVEAEDLGVYFCSQSIHVPWTFGGGTKLEIK
notes: also called 98B10B12
Take B11: in test [1], the binding result is listed as “no binding”.

B12: chimeric-VH + VL of clone 20-2-40-2 (98G2E9) (antibody, V domains shown)
VH: EVLLVESGGGLVKPGGSLKLSCAASGFTFSGYAMSWVRQTPEKRLEWVATITSGGSYTYYPDSVKGRFTISRDNAKNTLYLQMSSLRSEDTAMYYCARKDYGNYWFAYWGQGTLVTVSA
VL: DVVMTQTPLSLPVSLGDQASISCRSSQSLVHSDGNTYLHWYLQKPGQSPKLLIYKVSNRFSGVPDRFSGSGSGTDFTLKISRVEAEDLGVYFCSQTTQVPWTFGGGTKLEIK
notes: also called clone #40-2
On to B12, for which, in test [4], the affinity, expressed as Kd, was 49.9 nM; the koff worked out at 0.00181 s⁻¹; the kon stood at 36200 M⁻¹ s⁻¹.

B13: 20-2-43 (antibody, V domains shown)
VH: DVQLQESGPDLVKPSQSLSLNCTVTGYSITSGYSWHWIRQFPGNKLEWMGYIHYSGSTNYNPPLKSRIFIARDTSKNQFFLQLTSVTTEDTATYYCARGVVSNYAMGNWGQGTSVTVSS
VL: ETTVTQSPASLSMAIGEKVTIRCITNTDIDDDMNWYQQKPGEPPKLLISEGNTLRPGVPSRFSSSGYGTDFVFTIENMLSEDVADYYCLQSDDLPLTFGSGTKLEIK
notes: also called 115A10H4
For the molecule B13, in test [1], the binding result is on record as “no binding”.

B14: humanized antibody 28-H3 (84C3G8H7-VH3 + VL1) (scFv)
scFv: QVQLVQSGAEVKKPGASVKVSCKASGFNIKDYYMHWVRQAPGQRLEWIGWIDPENGNTIYDPKFQGRATITADTSASTAYMELSSLRSEDTAVYYCARGWFAYWGQGTLVTVSSGGGGSGGGGSGGGGSGGGGSDIVMTQSPDSLAVSLGERATINCKSSQSLLNSSNQKNHLAWYQQKPGQPPKLLIYFASTRASGVPDRFSGSGSGTDFTLTISSLQAEDVAVYYCQQHYSTPLTFGGGTKLELK
notes: the format in the SPR assay is not clearly stated
With B14, in test [3], binding was characterised by a dissociation constant (Kd) of 167 nM, the koff was found to be 0.0221 s⁻¹ and the kon was determined as 132000 M⁻¹ s⁻¹.

B15: humanized antibody 28-H8 (84C3G8H7-VH3 + VL2(PTM)) (scFv)
scFv: QVQLVQSGAEVKKPGASVKVSCKASGFNIKDYYMHWVRQAPGQRLEWIGWIDPENGNTIYDPKFQGRATITADTSASTAYMELSSLRSEDTAVYYCARGWFAYWGQGTLVTVSSGGGGSGGGGSGGGGSGGGGSDIVMTQSPDSLAVSLGERATINCKSSQSLLNSSNQKNHLAWYQQKPGQPPKLLVYFASTRGSGVPDRFSGSGSGTDFTLTISSLQAEDVAVYFCQQHYSTPLTFGGGTKLELK
notes: as for B14
In test [3], B15 came in with a Kd of 72.6 nM, a koff of 0.0103 s⁻¹ and a kon of 142000 M⁻¹ s⁻¹.

B16: humanized antibody 28-H9 (84C3G8H7-VH4 + VL1(PTM)) (scFv)
scFv: QVQLVQSGAEVKKPGASVKVSCKASGFNIKDYYMHWVKQAPGQRLEWIGWIDPENGNTIYDPKFQGRATITADTSANTAYMELSSLRSEDTAVYYCARGWFAYWGQGTLVTVSSGGGGSGGGGSGGGGSGGGGSDIVMTQSPDSLAVSLGERATINCKSSQSLLNSSNQKNHLAWYQQKPGQPPKLLIYFASTRGSGVPDRFSGSGSGTDFTLTISSLQAEDVAVYYCQQHYSTPLTFGGGTKLELK
notes: as for B14
In the case of B16, in test [3], the affinity, expressed as Kd, was 47.5 nM; the koff worked out at 0.00665 s⁻¹; the kon came to 140000 M⁻¹ s⁻¹.

B17: humanized antibody 28-H5 (84C3G8H7-VH4 + VL1) (scFv)
scFv: QVQLVQSGAEVKKPGASVKVSCKASGFNIKDYYMHWVKQAPGQRLEWIGWIDPENGNTIYDPKFQGRATITADTSANTAYMELSSLRSEDTAVYYCARGWFAYWGQGTLVTVSSGGGGSGGGGSGGGGSGGGGSDIVMTQSPDSLAVSLGERATINCKSSQSLLNSSNQKNHLAWYQQKPGQPPKLLIYFASTRASGVPDRFSGSGSGTDFTLTISSLQAEDVAVYYCQQHYSTPLTFGGGTKLELK
notes: as for B14
For the molecule B17, in test [3], binding was characterised by a dissociation constant (Kd) of 80.3 nM, the koff turned out to be 0.00891 s⁻¹ and the kon came to 111000 M⁻¹ s⁻¹.

B18: humanized antibody 28-H7 (84C3G8H7-VH3 + VL1(PTM)) (scFv)
scFv: QVQLVQSGAEVKKPGASVKVSCKASGFNIKDYYMHWVRQAPGQRLEWIGWIDPENGNTIYDPKFQGRATITADTSASTAYMELSSLRSEDTAVYYCARGWFAYWGQGTLVTVSSGGGGSGGGGSGGGGSGGGGSDIVMTQSPDSLAVSLGERATINCKSSQSLLNSSNQKNHLAWYQQKPGQPPKLLIYFASTRGSGVPDRFSGSGSGTDFTLTISSLQAEDVAVYYCQQHYSTPLTFGGGTKLELK
notes: as for B14
On to B18, for which, in test [3], the Kd amounted to 77.2 nM, the koff was 0.0112 s⁻¹ and the kon was 146000 M⁻¹ s⁻¹.

B19: humanized antibody 28-H4 (84C3G8H7-VH3 + VL2) (scFv)
scFv: QVQLVQSGAEVKKPGASVKVSCKASGFNIKDYYMHWVRQAPGQRLEWIGWIDPENGNTIYDPKFQGRATITADTSASTAYMELSSLRSEDTAVYYCARGWFAYWGQGTLVTVSSGGGGSGGGGSGGGGSGGGGSDIVMTQSPDSLAVSLGERATINCKSSQSLLNSSNQKNHLAWYQQKPGQPPKLLVYFASTRASGVPDRFSGSGSGTDFTLTISSLQAEDVAVYFCQQHYSTPLTFGGGTKLELK
notes: as for B14
Turning to B19, in test [3], the dissociation constant Kd stood at 154 nM, the koff turned out to be 0.0206 s⁻¹ and the kon was 134000 M⁻¹ s⁻¹.
